This data set can be described thus: soluble on expression in E. coli; label from the status in PepcDB or PDB records.
In the case of “MDPTDLSFSPDEINKLIETGLNTVEYFTSQQVTGTSSLGKNTIPPGVTGLLTNAAEAKIQESTNHQKGSVGGGAKPKKPRPKIAIVPADDKTVPGKPIPNPLLGLDSTPSTQTVLDLSGKTLPSGSYKGVKLAKFGKENLMTRFIEEPRENPIATSSPIDFKRGRDTGGFHRREYSIGWVGDEVKVTEWCNPSCSPITAAARRFECTCHQCPVTCSECERDT”, the “soluble on expression in E. coli” value is recorded as “soluble”.

Turning to “MDPYQQGGRGGGFPARGGRGGGHGGGYPQEGYGAAAGGYGGYDPYNPYGAAGGYGMYPGQGYPPQEMTSPLDAEIQAVLREIHLEVTGLETSGDQFRNARRLLNSEKERLENNIDPEWLEVDVAKPVKVCKKILVPIYRHPNFNFIGKVLGPKGATLQTLCKTHKCHIYILGRGSTKDREKEAELLASGDPQHAHFSGPLHVKVETVAPAYIAYGRVAAVIEELSRILQPIHEDTTPAHLKNGSGDGEEKEDEEKKEGGEGGGRGGRGGRGGFRGGFRGGRGGFGGPGGPMGGRGGMGGMGGRGRGGQAAGFRPY”, the “soluble on expression in E. coli” value is “not soluble”.

Take “MDQECIENYAKVNGIYIYYKLCKAPEEKAKLMTMHGGPGMSHDYLLSLRDMTKEGITVLFYDQFGCGRSEEPDQSKFTIDYGVEEAEALRSKLFGNEKVFLMGSSYGGALALAYAVKYQDHLKGLIVSGGLSSVPLTVKEMNRLIDELPAKYRDAIKKYGSSGSYENPEYQEAVNYFYHQHLLRSEDWPPEVLKSLEYAERRNVYRIMNGPNQFTITGTIKDWDITDKISAIKIPTLITVGEYDEVTPNVARVIHEKIAGSELHVFRDCSHLTMWEDREGYNKLLSDFILKHL”: the “soluble on expression in E. coli” value was “soluble”.

On to “MDQENERNISRLWRAFRTVKEMVKDRGYFITQEEVELPLEDFKAKYCDSMGRPQRKMMSFQANPTEESISKFPDMGSLWVEFCDEPSVGVKTMKTFVIHIQEKNFQTGIFVYQNNITPSAMKLVPSIPPATIETFNEAALVVNITHHELVPKHIRLSSDEKRELLKRYRLKESQLPRIQRADPVALYLGLKRGEVVKIIRKSETSGRYASYRICM”, for which the “soluble on expression in E. coli” value was “soluble”.

As to “MDQNRGSDVGFAVPMLPVNYASATQKMSTLASTSSAGASSSTGSSNQQQQQAAAVIRRRRFSTAKIQPTRIKKVMQSDEDIGRMVQSVPVSIGRAMEHFAEKFLQAAAEATQFTSSKTLNPQHMKQAVLNTPHFSFLESVFKDVALPQQASELNTARTGMTLRGQQMLQEQQNSDFASAILANAQMQMMQMDQQALKQEDGTISPYLVDPQSPAAPLPLYLQGIPSNYPVVQELTATVPLSPSTPTTQLVNGMLGMLKYSKKDSEGQRLTGLKRASTDGDGEDRPKRGRPKKLKPEKCIDDDLYEEASRNIAKEDKDRELMPPPALPIGRP”, the “soluble on expression in E. coli” value was “not soluble”.

On to “MDQPWNANIHYDALLDAMVPLGTQCVLDVGCGDGLLAARLARRIPYVTAVDIDAPVLRRAQTRFANAPIRWLHADIMTAELPNAGFDAVVSNAALHHIEDTRTALSRLGGLVTPGGTLAVVTFVTPSLRNGLWHLTSWVACGMANRVKGKWEHSAPIKWPPPQTLHELRSHVRALLPGACIRRLLYGRVLVTWRAPVLEHHHHHH”, for which the “soluble on expression in E. coli” value is “not soluble”.

On to “MDREALLQAVKEARELAKPRNFTQSFEFIATLKEIDMRKPENRIKTEVVLPHGRGKEAKIAVIGTGDLAKQAEELGLTVIRKEEIEELGKNKRKLRKIAKAHDFFIAQADLMPLIGRYMGVILGPRGKMPKPVPANANIKPLVERLKKTVVINTRDKPYFQVLVGNEKMTDEQIVDNIEAVLNVVAKKYEKGLYHIKDAYVKLTMGPAVKVKKEKAKKK”, for which the “soluble on expression in E. coli” value is listed as “soluble”.

Consider “MDRNFKLRQMFSDYLDNKNSNSTHTPPVRVHYPLIATMSPADKARFTVKKITEVEGEVLDAPLENAHPVFFAEPQFELRWYNKPDSLAGRFQTNAEAETTSKLAQRLLTLFLKTEMLESAFFKYDDIRAIRVFFMDDREMATDRLMAILDNILSVSMTKLGHFSDKMSVTVDYELRAFMSDQKKAKRLVLEAMLKYPEFIPDSWGGESAILKWKEMKEIDVRRREADIKEMAETERKEKEKVEKNKMEMTEKIKKKDEDEKAKKEKERIDKEEKIKKEVEEAEKKKKEEKEKRRKEVKKNREEQLSINPEMSRNDKKDVVEEKSCLDKGAKDAQKKKKQQDVVDKKKEKRKLKKTRTMEASRSREVSHEEHHQPPVLSTLATPSPVPSPSVPPTAPPSTPRKPMFGAVSQFLSGRKRREPSAEKIVEPPSKNSAAATKKTVRK”, for which the “soluble on expression in E. coli” value was “not soluble”.

On to “MDRTTPWQQQPIRYSADLEKPSPREQADIEKIMAKLLKNNERAYDKYKHGLRDAHAKSHAILRGELIVNEGLPPELAQGLFAEPRTYPVIARLSSTSGVRRSDKTRGVRGLGLKVLGVQGEKILPDDSSTNQDFVMVTHEDFLFADAHAYAGLGMITASLLARLSDQALWLGSGLLDLVSKAGIKLPDNLMVFVAPNRPILGLEFFSSAPFRHGDHVAKYRFAPASENVKALSGQLLPRNPAPEQHRDMIAEFFADQTAEFDFSAQLCTDPVAMPIEDAGKNWDKSISPYVSVAKIVFGPQNPYSALRRAYGDDVLAFNSWRGLAEHRPLGSINRLKKTVYESSADYRHRVNRIDRHEPVDISELPDLEHHHHHH”, for which the “soluble on expression in E. coli” value is given as “soluble”.

On to “MDRVESLANQIFEDYKDYGVDRKEIVEKLRKLLIEFRVPENEAVRTIRNYIIREYGAPATVRRERITKIEEIKEPNKWVTVKAKVIQLWESSSPSIAQVGLIGDETGYIRFLVWTKAKKQPVDEGKSYIFRNVVVDDYGGVLRLNVTKISEIEEIEEDVKVKPPEELSEDVEVVGALVAIQQNSGLIQRCSVEGCNRVIKMGKCPEHGKTKAKDDLRIKGVLDDGYRTYEVIINEEGVESLTGINLEKAKKIAEETLDRGAVLTELKKMLLGKYLRVVGTATPRYLIAKHVEFFRPDIRKEIEKVKALLEEV”, for which the “soluble on expression in E. coli” value is given as “not soluble”.

“MDSALFKTIALIGKHKNPDIVIPLLSLAEYLTDRGISVVLDSLTAAHISNSRYPILTLEEIGKQADLAIVLGGDGTMLNIARALVPFSVPLIGINQGRLGFLTDLTADTMHETLNDMLAGQFVVENRMLLTVEVTRNGESVFKELAFNDVVLHRGISSGMIELEVHINGEYVYSLRSDGLIIATPTGSTAYALSSGGPILHPGLNLMTLVPICPHTLSNRPIVIGADATIEIKVHFTTEIKIYTDSHSWFDLSEHDRVFIQRCPETIKLLHPVHHSYYRMLREKLGWSGILQKNSRLEHHHHHH”: the “soluble on expression in E. coli” value is “not soluble”.

Turning to “MDSEEPPNVRVACSGDIDEVVRLMHDAAAWMSAKGTPAWDVARIDRTFAETFVLRSELLVASCSDGIVGCCTLSAEDPEFWPDALKGEAAYLHKLAVRRTHAGRGVSSALIEACRHAARTQGCAKLRLDCHPNLRGLYERLGFTHVDTFNPGWDPTFIAERLELEI”, the “soluble on expression in E. coli” value is listed as “not soluble”.

On to “MDSENAVKTTYGEFNGKKPFAVMLLGTDTGALDRTEKRGNTDTIIVVVVNPKKKNYTMISIPRDTMADMVGDDSNDVQKINAAYSIGGAKMAMKTVSNLLNIPVKYYALVNMGGLMKLVDYVGGIYVTPPLTFTYSGFPFKKRVRQHLNGQAALAYSRMRYDDPQGDYGRQKRQREVITKLVQKLATADSLTNFSKIANNLSSNVKTNLSFQALKSILANYSDCTSSSDSDYLHGYSTYVNDAAYQIAPTSELQRISNKIRKLLGLKTATVSNRETELNTLNETAGFKFGSGETQNYTLEHHHHHH”, for which the “soluble on expression in E. coli” value is recorded as “soluble”.

Regarding “MDSENKTSIAIGCKVCNKYKVTKLLGGGSYGCVHEVIELKTGDRYAMKSEYSSMKKPILLNELKVMKAIYTFSSQHVLKVRDMGVHGSTKFIIMQMLEKNMDEVFELLGGSMTLNTAVATSYQCLEGLEFMHWAGFLHRDIKPNNYCLDANSGQGLRTIYIIDYGICKRFVDNNNVIRQPRKITKFRGTLDFAPIVSHELREHSRGSDLES”, the “soluble on expression in E. coli” value is on record as “not soluble”.

For “MDSIERKKTKPYNINEKEILDIVAAKGSYLSSISENLEEVPPHKESSSRAESKKTITDEEVKKYIEALLNNFSSNRRKPLHIDAQVYECISDIVWAVRRKDFTVSGVISRILVEHIKENAGMIKKITGRDYKLLQP”, the “soluble on expression in E. coli” value is given as “not soluble”.

With “MDSLNNGWFSELQADLWPGQSFSLKVKEVIHKEKSRFQDIQIVETETYGRCLILDGIIQCTARDEFSYQEMISFLPLCAHPNPKKVLIVGGGDGGVAREVVKHPLVEEVHQVEIDDRVVELSKQYLPAMACGFANEKLKLTIGDGFDYMKKHKNEFDVIITDSSDPIGPAVSLFQESYYELMKHALKDDGIVCSQGGSFWLDLDYIKKTMSGCKEHFAKVAYAVTSVPSYPCGHIGFVMGSLNKNQDFATPKLGKSEIDSIDLRYYSSEVHSAAFALPRWVQKHFYELEHHHHHH”, the “soluble on expression in E. coli” value was “not soluble”.

As to “MDSPQYLFLDFEFTMPETKTNPDGFCPEIIEVGLVAVVDDQIIGQFSSYVKPLRFPQLTERCKSFLNITQEQIDRGMSFYELVSLLRQYDRDRPTTVMTWGSMDMKVLRENCQSARVEFPFTGEHRDLAMEYKRFFGNKNQTALRKAVQEYGNEAVGKAHCALDDAFTAYTIFRLVENDKKYLAKTKPPTIGERIDLSQLRKKFAL”, the “soluble on expression in E. coli” value is reported as “not soluble”.

With “MDTESFKREFLPYHRKLYCVAYRLLENAADAEDLVQEAYLKLWDKREGLSVISNPEAFSVTLVKNMCFDLLRSGKYVLSRQSVELSAAQDVFQPDNLEAREGVRQIKDIIAHLPEQQQRIINMRDIKGCSYEEIEQVTGLNSINVRVLLSRARKKIREEFNKWNNYESRRN”, the “soluble on expression in E. coli” value is listed as “not soluble”.

In the case of “MDTIWELDFYSRPLVDENNKKIWELLVCDRQQQFQFSKTCAGAEANARWLAAALEEAMDQWRQQLGLAEGVQPQRVRFFRRAMSSIITRGGEAAGLVMVPSRRTFALYDWLRDRATNFYPTLPNYQADLATPPQLPPPAPQPLPPALQGDRWQLSGLPLGEIKTAAEWELPFGEVPPLPFLTLNDDTLLPGLIIYSQRALPLAGWLSGLEPASLSFEETPQPLLILETGASDRWILIRGRNPQIQKELAAFKDACTQSQGLHFIAVKEQPTQETLQGFWLLQQTPELLEHHHHHH”, the “soluble on expression in E. coli” value is “soluble”.

Take “MDTQNLPDQIIPIFMSFDKNYALGASVSLYSLLSHASRHTSMIDFSPLNQSNKLLGANIVYKIHCLVKGVTLEQQNKLLKTIAPFKKFASLEFIHINSLDHSIESYLNKSCSKRYGGLLVLCRLLLASLFPNYSKIISIDADTVFLGDVASAYFALDNDPTKSLGMVRDTFSHLSFEAFCDFCKRACKNFKIDFSRFSPDELKRIHQGFNMGFLVAHLDRWRQDGFEKTALEFLKTRGKDLFYPEQCLVNMVFWERILELPIYYNCYSDFFKEHYPKNIIMLHFIKYKPWRSVSSLNGRLICYEAEASFWLANLFHTPFKNDFFKERLEMAKDQQMQSFKTHIRSQTIRNYLGFRVKNILKKVFKLSLEHHHHHH”: the “soluble on expression in E. coli” value is listed as “soluble”.

With “MDTSSSCKAFLLDSALAVKWPRDKETAPRLPQHRGWNPGDAPQTSQGRGTGTPVGAETKTLPSTDVAQPPSDSDAVGPRSGFPPQPSLPLCRAPGQLGEKQLPSSTSDDRVKDEFSDLSEGDVLSEDENDKKQNAQSSDESFEPYPERKVSGKKSESKEAKKSEEPRIRKKPGPKPGWKKKLRCEREELPTIYKCPYQGCTAVYRGADGMKKHIKEHHEEVRERPCPHPGCNKVFMIDRYLQRHVKLIHTEVRNYICDECGQTFKQRKHLLVHQMRHSGAKPLQCEVCGFQCRQRASLKYHMTKHKAETELDFACDQCGRRFEKAHNLNVHMSMVHPLTQTQDKALPLEAEPPPGPPSPSVTTEGQAVKPEPT”, the “soluble on expression in E. coli” value is recorded as “soluble”.

As to “MDVAGLTDCGLIRKSNQDAFYIDEKHQRFFIVADGMGGHAGGEEASRLAVDHIRQYLETHLEDLQHDPVTLLRQAFLAANHAIVEQQRQNSARADMGTTAVVILLDEKGDRAWCAHVGDSRIYRWRKDQLQQITSDHTWIAQAVQLGSLTIEQARQHPWRHVLSQCLGREDLSQIDIQPIDLEPGDRLLLCSDGLTEELTDDVISIYLSEPNVQKAAAALVDAAKTHGGRDNVTVVVISV”, the “soluble on expression in E. coli” value is recorded as “soluble”.
